Here are results for nine molecules from US20180244777A1 (NUMAB THERAPEUTICS, published 2018).

Assay [1] concerns the target human CD3ε expressed on the cell surface of T cells (Jurkat cells; human CD8+ T cells) (human) (UniProt P07766). Nature of the assay: cell-based or functional assay.
In the next assay the target is mouse CD3ε (mouse, UniProt P22646 22-108, limits assumed). As to the kind of experiment: SPR. For orientation: Surface plasmon resonance follows binding to a sensor surface in real time, without labels.
Chain of mouse CD3ε (P22646 22-108 limits assumed): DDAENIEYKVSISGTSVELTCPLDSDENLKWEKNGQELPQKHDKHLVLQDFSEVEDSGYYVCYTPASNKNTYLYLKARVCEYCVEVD
The target of assay [2] is T1, human heterodimeric single-chain CD3εγ extracellular domain (human, UniProt P07766 23-126; P09693 23-116).
T1 construct: extracellular domain; Produced in-house; also called scCD3γε; human CD3ge
Nature of the assay: SPR, rabbit IgG captured, human single-chain CD3εγ ECD injected. The method, then: Binding affinities of monoclonal rabbit anti-CD3 antibodies were measured by surface plasmon resonance (SPR) using a MASS-1 SPR instrument (Sierra Sensors). […] Rabbit monoclonal antibodies were captured by the immobilized anti-rabbit IgG antibody. Two-fold serial dilutions of human heterodimeric single-chain CD3εγ extracellular domain (produced in-house) ranging from 90 to 2.81 nM were injected into the flow cells for 3 min and dissociation of the protein from the IgG captured on the sensor chip was allowed to proceed for 5 min. After each injection cycle, surfaces were regenerated with two injections of 10 mM glycine-HCl. The apparent dissociation (kd) and association (ka) rate constants and the apparent dissociation equilibrium constant (KD) were calculated with the MASS-1 analysis software (Analyzer, Sierra Sensors) using one-to-one Langmuir binding model.

For assay [3], the target named is T2, cynomolgus monkey heterodimeric single-chain CD3εγ extracellular domain (cynomolgus monkey, UniProt Q95LI5 22-117; Q95LI7 23-113). Nature of the assay: SPR, rabbit IgG captured, cyno single-chain CD3εγ ECD injected.
T2 sequence (Q95LI7 other isoform, or with tags, fused parts or gaps): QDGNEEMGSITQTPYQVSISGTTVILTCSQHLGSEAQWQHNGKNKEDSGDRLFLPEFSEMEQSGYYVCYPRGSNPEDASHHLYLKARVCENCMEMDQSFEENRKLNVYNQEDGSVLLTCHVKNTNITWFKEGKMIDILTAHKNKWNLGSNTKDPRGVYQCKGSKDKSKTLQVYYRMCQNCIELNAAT
For assay [4], the target named is T2, cynomolgus monkey heterodimeric …. As to the kind of experiment: SPR; ratio of the KDs for cyno and human single-chain CD3εγ.
Assay [5] has as its target T3, human CD3ε expressed on the cell surface of T cells (Jurkat cells; human CD8+ T cells) (human, UniProt P07766 23-207).
T3 construct: whole, on cells; also called native CD3ε embedded in the TCR complex on Jurkat cells
Nature of the assay: cell-based ELISA on Jurkat cells, CD3ε-deficient Jurkat subtracted. The procedure: Jurkat cells (clone E6-1), a human T cell line, were seeded at 300,000 cells/well in round bottom 96-well plates in 100 μl phosphate-buffered saline (PBS) containing 10% FBS. Five-fold serial dilutions of anti-CD3 rabbit monoclonal antibodies ranging from 90 nM to 0.0058 nM were added to the plates in 100 μl PBS containing 10% FBS. […] This secondary antibody was linked to the enzyme horseradish peroxidase (HRP). HRP activity was measured by addition of TMB substrate (3,3′,5,5′-tetramethylbenzidine, KPL, Cat. No. 53-00-00), which in a colorimetric reaction is processed by the HRP. The color intensity of the processed substrate is directly proportional to the amount of anti-CD3 antibody bound to Jurkat cells. To quantify color intensity, light absorbance (optical density) at the respective wave length was measured using a microtiter plate reader (Infinity reader M200 Pro, Tecan).
To correct for unspecific binding of the antibodies to unknown components presented on the cell surface of Jurkat cells, a CD3ε deficient derivative of the Jurkat T cell line (J.RT3-T3.5) was used. Binding of the monoclonal antibodies to this cell line was measured as described above for the Jurkat cells. For quantification of specific binding to Jurkat cells, the optical density for binding to the negative control was subtracted from the optical density for binding to Jurkat cells. Data were analyzed using a four-parameter logistic curve fit using the Softmax Data Analysis Software (Molecular Devices), and the molar concentration of anti-CD3 antibody required to reach 50% binding (EC₅₀, mid-OD of the standard curve) was derived from dose response curves.
On the technique in general: ELISA stands for enzyme-linked immunosorbent assay.

Assay [6] deals with T3, human CD3ε expressed on the cell …. As to the kind of experiment: cell-based or functional assay.
Assay [7] concerns the target T4, linear 15mer peptide derived from human CD3ε residues 2-16 (wild type of the substitution library, Set 1) (human).
T4 construct: Probed as a saturation mutagenesis library on a peptide array
T4 peptide: DGNEEMGGITQTPYK
As to the kind of experiment: 15mer peptide array ELISA.

Assay [8] concerns the target T5, linear 15mer peptide derived from cynomolgus CD3ε residues 2-16 (wild type of the substitution library, Set 2) (cynomolgus).
T5 construct: Probed as a saturation mutagenesis library on a peptide array
T5 peptide: DGNEEMGSITQTPYQ
Nature of the assay: 15mer peptide array ELISA.

Assay [9] deals with T6, linear 15mer peptides derived from cynomolgus CD3ε residues 5-20 (Set 4) (cynomolgus).
T6 construct: also called peptides spanning residues 5-20
T6 peptide: EEMGSITQTPYQVSIS
As to the kind of experiment: peptide array ELISA, Set 4. The method, then:
(§1) The binding of the antibodies to each of the synthesized peptides was tested by ELISA. The peptide arrays were incubated with primary antibody solution (overnight at 4° C.). After washing, the peptide arrays were incubated with a 1/1000 dilution of an antibody peroxidase conjugate (SBA, cat.nr.2010-05) for one hour at 25° C. After washing, the peroxidase substrate 2,2′-azino-di-3-ethylbenzthiazoline sulfonate (ABTS) and 2 μl/ml of 3% H₂O₂ were added. After one hour, the color development was measured. The color development was quantified with a charge coupled device (CCD)—camera and an image processing system.

Assay [10] addresses T7, linear 15mer peptides derived from human CD3ε residues 5-20 (Set 3) (human).
T7 construct: also called peptides spanning residues 5-20
T7 peptide: EEMGGITQTPYKVSIS
Nature of the assay: peptide array ELISA, Set 3. The method, then: as §1

Take TR66 (antibody): in assay [1], the Fold increase in CD69 expression [MFI normalized to neg. ctrl.], 1.25 µg/ml anti-CD3 IgG came out at 1.6 fold; the Fold increase in CD69 expression [MFI normalized to neg. ctrl.], 5 µg/ml anti-CD3 IgG amounted to 2.2 fold; the Fold increase in CD69 expression [MFI normalized to neg. ctrl.], 20 µg/ml anti-CD3 IgG was 3 fold.
Turning to OKT3 (antibody), in [1], the Fold increase in CD69 expression [MFI normalized to neg. ctrl.], 1.25 µg/ml anti-CD3 IgG was found to be 1.8 fold; the Fold increase in CD69 expression [MFI normalized to neg. ctrl.], 5 µg/ml anti-CD3 IgG amounted to 2.5 fold; the Fold increase in CD69 expression [MFI normalized to neg. ctrl.], 20 µg/ml anti-CD3 IgG came to 3.1 fold.

B1: PRO400 (Fab, V domains shown)
VH: EVQLVESGGGLVQPGKSLKLSCEASGFTFSGYGMHWVRQAPGRGLESVAYITSSSINIKYADAVKGRFTVSRDNAKNLLFLQMNILKSEDTAMYYCARFDWDKNYWGQGTMVTVSS
VL: DIQMTQSPSSLPASLGDRVTINCQASQDISNYLNWYQQKPGKAPKLLIYYTNKLADGVPSRFSGSGSGRDSSFTISSLESEDIGSYYCQQYYNYPWTFGPGTKLEIKR
notes: Chimeric Fab: hamster 2C11 variable domains with human CL and CH1; also called anti-mCD3 Fab; 2C11 Fab
A word on the Kd: it is the equilibrium constant for the complex coming apart. The term koff denotes a measure of how fast the partners let go of each other. Broadly, the kon is a measure of how fast the partners come together. In the assay with mouse CD3ε, B1 showed a Kd of 11.4 nM, a koff of 0.00266 s⁻¹ and a kon of 233000 M⁻¹ s⁻¹.

B2: clone-01 (antibody, V domains shown)
VH: QSVEESGGRLVTPGTPLTLTCTVSGFPLSSYAMIWVRQAPGKGLEWIGMILRAGNIYYASWAKGRFTISKTSTTVDLKITSPTTEDTATYFCARRQYNTDGYPIGIGDLWGPGTLVTVSS
VL: AQVLTQTASSVSAAVGGTVTISCQSSESVYNNNRLSWFQQKPGQPPKQLIYSASSLASGVPSRFKGSGSGTQFTLTISDLECDDAATYYCQGEFSCSSADCFTFGGGTEVVVKG
notes: Recombinant rabbit IgG; also called purified monoclonal rabbit anti-CD3ε antibody clone-01
The EC50 is the concentration at which the effect is half-maximal. In assay [2], B2 gave a Kd of 2.97 nM, a koff of 0.00159 s⁻¹ and a kon of 536000 M⁻¹ s⁻¹. In assay [3], this molecule gave a Kd of 10.2 nM, a koff of 0.00392 s⁻¹ and a kon of 386000 M⁻¹ s⁻¹. Moreover, the “KD (human)/KD (cyno)” value in assay [4] was 3. Also, in assay [5], the EC50 came out at 0.58 nM.

B3: clone-10 (antibody, V domains shown)
VH: QSLEESGGRLVTPGTPLTLTCTVSGFPLSSFAMLWVRQAPGKGLEWIGMIMRAHNMYYASWAKGRFTISKTSTTVDLEITSPTTEDTATYFCARRHYNTYGYPIAIGDLWGPGTLVTVSS
VL: AQVLTQTPSSVSAAVGGTATISCQSNENIYSNNRLSWFQQKAGQPPNQLIYSASSLASGVPSRFKGSGSGTQFTLTISDLECDDAATYYCQGEFSCSSADCFTFGGGTEVVVKG
notes: Recombinant rabbit IgG
As for B3, in assay [2], binding was put at a Kd of 1.66 nM, the dissociation rate constant (koff) is 0.00126 s⁻¹ and the kon worked out at 757000 M⁻¹ s⁻¹. In assay [3], this molecule displayed a Kd of 10.9 nM, a koff of 0.00349 s⁻¹ and a kon of 321000 M⁻¹ s⁻¹. Further, in assay [6], the “Fold increase in CD69 expression [MFI normalized to neg. ctrl.], 1.25 µg/ml anti-CD3 IgG” value worked out at 2.6 fold; the “Fold increase in CD69 expression [MFI normalized to neg. ctrl.], 5 µg/ml anti-CD3 IgG” value was 4.2 fold; the “Fold increase in CD69 expression [MFI normalized to neg. ctrl.], 20 µg/ml anti-CD3 IgG” value was found to be 6.2 fold. Also, the “KD (human)/KD (cyno)” value in [4] was 7. The molecule also returned an EC50 in [5] of 0.35 nM.

B4: clone-04 (antibody, V domains shown)
VH: QSLEESGGRLVKPDETLTLTCTVSGFPLSSYAMGWFRQAPGKGLEWIGMILRSDNTYYASWAKGRFTISKTSTTVDLKITSPTTEDTATYFCARRHYNASGNPIAIGDLWGPGTLVTVSS
VL: AQVLTQTPSSVSAAVGGTVTINCQSSQSVYNNNRLSWFQQKPGQPPKLLIYTTSSLASGVPSRFKGSGSGTEFTLTISDLECADAATYYCQGEFSCSRADCFNFGGGTEVVVKG
notes: Recombinant rabbit IgG; also called Clone 4
In assay [2], B4 had a Kd of 0.113 nM, a koff of 9.88e-05 s⁻¹ and a kon of 873000 M⁻¹ s⁻¹. In assay [3], this molecule showed a Kd of 4.12 nM, a koff of 0.00266 s⁻¹ and a kon of 646000 M⁻¹ s⁻¹. Also, the binding result in assay [7] was “binds”. The binding result in [8] is recorded as “binds”. Besides, in assay [6], the “Fold increase in CD69 expression [MFI normalized to neg. ctrl.], 1.25 µg/ml anti-CD3 IgG” value worked out at 2.6 fold; the “Fold increase in CD69 expression [MFI normalized to neg. ctrl.], 5 µg/ml anti-CD3 IgG” value is 3.5 fold; the “Fold increase in CD69 expression [MFI normalized to neg. ctrl.], 20 µg/ml anti-CD3 IgG” value amounted to 7.8 fold. Further, the “KD (human)/KD (cyno)” value in assay [4] is 36. This molecule returned an EC50 in assay [5] of 1.87 nM. Also, the binding result in [9] is “no binding”. Besides, the binding result in assay [10] is on record as “no binding”.

B5: clone-11 (antibody, V domains shown)
VH: QSLEESGGRLVTPGTPLTLTCTVSGFPLSSYAMGWFRQAPGKGLEWIGMILRADNTYYASWVNGRFTISKTSTTVDLKITSPTTEDTATYFCARRHYNTYGYPVAIGDLWGPGTLVTVSS
VL: AQVLTQTPSSVSAAVGGTVTINCQSSQSVYNNNRLSWFQQKPGQPPKLLIYTASSLASGVPSRFKGSGSGTEFTLTISDLECADAATYYCQGEFSCSSADCFTFGGGTEVVVKG
notes: Recombinant rabbit IgG
B5: in assay [2], the Kd was determined as 3.13 nM, the koff amounted to 0.00133 s⁻¹ and the kon was found to be 425000 M⁻¹ s⁻¹. In assay [3], the Kd came out at 10 nM, the koff amounted to 0.00365 s⁻¹ and the kon stood at 363000 M⁻¹ s⁻¹. Further, the “KD (human)/KD (cyno)” value in [4] turned out to be 3. In [5], this molecule showed an EC50 of 0.28 nM.

B6: clone-09 (antibody, V domains shown)
VH: QSLEESGGRLVTPGTPLTLTCTVSGFPLNRYAMLWVRQAPGKGLEWIGLITRADKKYYASWAKGRFTISKTSTTVDLEITGPTTEDTATYFCARRHYNTDGYPVAIGDLWGPGTLVTVSS
VL: AQVLTQTPSSVSAAVGGTVTISCQSNENIYSNNRLSWFQQKPGQPPNQLIYSASSLASGVPSRFKGSGSGTQFTLTISDLECDDAATYYCQGEFNCNSADCFTFGGGTEVVVKG
notes: Recombinant rabbit IgG
In the case of B6, in [2], the Kd came out at 1.14 nM, the koff came to 0.000688 s⁻¹ and the kon is 601000 M⁻¹ s⁻¹. In [3], this molecule registered a Kd of 11.6 nM, a koff of 0.00269 s⁻¹ and a kon of 232000 M⁻¹ s⁻¹. Besides, in assay [4], the “KD (human)/KD (cyno)” value was determined as 10. The molecule further showed an EC50 in assay [5] of 0.82 nM.

B7: clone-12 (antibody, V domains shown)
VH: QSLEESGGRLVTPGTPLTLTCTVSGFPLSRYAMLWVRQAPGKGLEWIGLITRADNKYYASWAKGRFTISKTSTTVDLEITSPTTEDTATYFCARRHYNTDGYPIAIGDLWGPGTLVTVSS
VL: AQVLTQTPSSVSATVGGTVTISCQSNENIYSNNRLSWFQQKPGQPPKLLIYSASSLASGVPSRFKGSGSGTQFTLTISDLECDDAATYYCQGEFNCNSADCFTFGGGTEVVVKG
notes: Recombinant rabbit IgG
For B7, in assay [2], the Kd stood at 1.11 nM, the koff worked out at 0.000798 s⁻¹ and the on-rate (kon) came to 721000 M⁻¹ s⁻¹. In assay [3], the Kd was 22.2 nM, the koff stood at 0.00314 s⁻¹ and the kon worked out at 142000 M⁻¹ s⁻¹. In addition, in assay [4], the “KD (human)/KD (cyno)” value stood at 20. This molecule showed an EC50 in [5] of 0.59 nM.
